The record followed here is patent US20180118785A1 (University of Pennsylvania, published 2018).

Bridges are numbered along the chain shown (N, C = ends). [ ]: non-standard residue; d: D form. Bpa = N[C@@H](Cc1ccc(C(=O)c2ccccc2)cc1)C(=O)O; 1Nal = N[C@@H](Cc1cccc2ccccc12)C(=O)O; 2Nal = N[C@@H](Cc1ccc2ccccc2c1)C(=O)O; Igl = N[C@H](C(=O)O)C1Cc2ccccc2C1

In test [1] the target is complement component C3 (human, in normal human plasma) (human) (UniProt P01024). The test is described as follows: cell-based or functional assay.
Test [2] concerns the target complement component C3 (human, in normal human plasma) (human, UniProt P01024 23-1663). In words: cell-based or functional assay.

On to “Compstatin analog with Ile substituted for Thr at position 13 (peptide)”, for which, in test [1], the complement-inhibitory activity compared with Compstatin (fold over Compstatin) is 21.

Regarding Ac-ICV[Igl]QDWGAHRCT-NH2 (disulfide 2-12 (inferred)) [Ac-4IgI,9A], in test [2], the “Activity over Compstatin (inhibition of C3b/iC3b deposition on immunocomplexes in human plasma, compared by IC50)” value was found to be 55 fold over Compstatin.

In the case of Ac-ICV[2Nal]QDWGAHRCT-NH2 (disulfide 2-12 (inferred)) [Ac-4(2-Nal),9A], the “Activity over Compstatin (inhibition of C3b/iC3b deposition on immunocomplexes in human plasma, compared by IC50)” value in test [2] stood at 66 fold over Compstatin.

Ac-ICV[Bpa]QDWGAHRCT-OH (disulfide 2-12 (inferred)) [Ac-4(Bpa),9A-OH]: the “Activity over Compstatin (inhibition of C3b/iC3b deposition on immunocomplexes in human plasma, compared by IC50)” value in test [2] worked out at 55 fold over Compstatin.

As to Ac-ICV[2Nal]QDWGAHRCT-OH (disulfide 2-12 (inferred)) [Ac-4(2-Nal),9A-OH], in test [2], the “Activity over Compstatin (inhibition of C3b/iC3b deposition on immunocomplexes in human plasma, compared by IC50)” value is 39 fold over Compstatin.

B1: Ac-4Y,9A (peptide)
peptide: Ac-ICVYQDWGAHRCT-NH2
modifications: disulfide 2-12
SMILES: CC[C@H](C)[C@H](NC(C)=O)C(=O)N[C@H]1CSSC[C@@H](C(=O)N[C@H](C(N)=O)[C@@H](C)O)NC(=O)[C@H](CCCNC(=N)N)NC(=O)[C@H](Cc2c[nH]cn2)NC(=O)[C@H](C)NC(=O)CNC(=O)[C@H](Cc2c[nH]c3ccccc23)NC(=O)[C@H](CC(=O)O)NC(=O)[C@H](CCC(N)=O)NC(=O)[C@H](Cc2ccc(O)cc2)NC(=O)[C@H](C(C)C)NC1=O
For the molecule B1, in test [2], the “Activity over Compstatin (inhibition of C3b/iC3b deposition on immunocomplexes in human plasma, compared by IC50)” value turned out to be 19 fold over Compstatin.

As for Ac-ICV[Igl]QDWGAHRCT-OH (disulfide 2-12 (inferred)) [Ac-4IgI,9A-OH], the “Activity over Compstatin (inhibition of C3b/iC3b deposition on immunocomplexes in human plasma, compared by IC50)” value in test [2] turned out to be 55 fold over Compstatin.

B2: Ac-4Dht,9A-OH (peptide)
peptide: ICVXQDWGAHRCT
modifications: N-terminal acetyl; dihydrotryptophan (Dht) at position 4; free C-terminal acid (COOH); disulfide bond between the two Cys residues
B2: the “Activity over Compstatin (inhibition of C3b/iC3b deposition on immunocomplexes in human plasma, compared by IC50)” value in test [2] was determined as 9 fold over Compstatin.

B3: +G,4W,9A + AN-OH (peptide)
peptide: H-GICVWQDWGAHRCTAN-OH
modifications: disulfide 3-13
SMILES: CC[C@H](C)[C@H](NC(=O)CN)C(=O)N[C@H]1CSSC[C@@H](C(=O)N[C@H](C(=O)N[C@@H](C)C(=O)N[C@@H](CC(N)=O)C(=O)O)[C@@H](C)O)NC(=O)[C@H](CCCNC(=N)N)NC(=O)[C@H](Cc2c[nH]cn2)NC(=O)[C@H](C)NC(=O)CNC(=O)[C@H](Cc2c[nH]c3ccccc23)NC(=O)[C@H](CC(=O)O)NC(=O)[C@H](CCC(N)=O)NC(=O)[C@H](Cc2c[nH]c3ccccc23)NC(=O)[C@H](C(C)C)NC1=O
On to B3, for which the “Activity over Compstatin (inhibition of C3b/iC3b deposition on immunocomplexes in human plasma, compared by IC50)” value in test [2] worked out at 38 fold over Compstatin.

With Ac-ICV[1Nal]QDWGAHRCT-OH (disulfide 2-12 (inferred)) [Ac-4(1-Nal),9A-OH], the “Activity over Compstatin (inhibition of C3b/iC3b deposition on immunocomplexes in human plasma, compared by IC50)” value in test [2] is 23 fold over Compstatin.
